{"source": "paper PMC3606643", "binders": {"B1": {"name": "DR1 (5'-fluorescein top strand) (dsDNA)", "DNA 1": "GGAACTAGGTCAAAGGTCAG", "DNA 2": "CCTGACCTTTGACCTAGTTC"}}, "key": {"HNF4α DBD (DBD-hinge)": {"molecular_target": "T1, HNF4α DBD (DBD-hinge) (human, UniProt P41235-2 55-135)", "T1 sequence": "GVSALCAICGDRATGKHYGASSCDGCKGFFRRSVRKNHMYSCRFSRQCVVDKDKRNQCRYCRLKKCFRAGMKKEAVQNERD", "test": "fluorescence anisotropy"}, "[1]": {"molecular_target": "T2, HNF4α ΔABΔF (DBD-hinge-LBD) (human, UniProt P41235-2 55-377)", "T2 sequence": "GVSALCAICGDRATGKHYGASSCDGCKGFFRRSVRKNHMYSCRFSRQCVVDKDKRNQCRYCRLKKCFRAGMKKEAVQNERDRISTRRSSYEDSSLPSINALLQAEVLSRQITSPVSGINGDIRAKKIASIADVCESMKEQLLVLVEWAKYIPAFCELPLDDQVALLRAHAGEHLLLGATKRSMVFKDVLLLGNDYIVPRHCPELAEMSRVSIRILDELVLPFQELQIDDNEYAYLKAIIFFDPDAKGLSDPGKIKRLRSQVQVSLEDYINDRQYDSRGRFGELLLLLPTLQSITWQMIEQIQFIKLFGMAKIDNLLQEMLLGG", "test": "fluorescence anisotropy"}}, "data": [{"binder": "B1", "values": [{"measurement": "Kd", "setting": "HNF4α DBD (DBD-hinge)", "result": "~6", "unit": "µM"}, {"measurement": "Kd", "setting": "[1]", "result": 0.082, "unit": "µM"}]}]}
